According to the supplement of paper PMC9112550, “Optimization of the antimicrobial peptide Bac7 by deep mutational scanning” (BMC Biology, 2022):

tested on: Escherichia coli TOP10; assay: shrunken log2 fold change of peptide-encoding DNA abundance (4.5 h post-induction vs induction); higher = less antimicrobial activity (less host growth inhibition); conditions: time post-induction: 4.5 h; library: site-saturation at positions 5, 18, 19, 20
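Further: peptides expressed intracellularly from a pBAD plasmid library in pooled LB shake-flask culture, induced with 0.3% L-arabinose, DNA abundance read by NGS, three biological replicates, DESeq2 with apeglm shrinkage.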

Point of comparison: RRIRFRPPRLPRPRPRPVGIPRP, “shrunken log2 fold change” value -0.135. Against it:
- RRIRQRPPRLPRPRPRPYEEPRP — lower, -0.434
- RRIRCRPPRLPRPRPRPNDLPRP — within 0.2 log units, 0.0432
- RRIRHRPPRLPRPRPRPFEHPRP — within 0.2 log units, -0.0952
- RRIRNRPPRLPRPRPRPYIDPRP — within 0.2 log units, 0.0433
- RRIRRRPPRLPRPRPRPDKDPRP — within 0.2 log units, 0.00839
- RRIRNRPPRLPRPRPRPMTWPRP — higher, 0.0964
- RRIRVRPPRLPRPRPRPNRRPRP — within 0.2 log units, -0.0977
- RRIRIRPPRLPRPRPRPAWQPRP — higher, 0.342
- RRIRERPPRLPRPRPRPQNPPRP — within 0.2 log units, -0.213
- RRIRWRPPRLPRPRPRPCEIPRP — within 0.2 log units, -0.243
- RRIRERPPRLPRPRPRPIDPPRP — higher, 0.0954
- RRIRVRPPRLPRPRPRPAFAPRP — higher, 0.666
- RRIRRRPPRLPRPRPRPVSDPRP — higher, 0.444
- RRIRMRPPRLPRPRPRPKPDPRP — higher, 1.13
- RRIRARPPRLPRPRPRPEISPRP — higher, 0.81
- RRIRQRPPRLPRPRPRPQEVPRP — within 0.2 log units, -0.171
- RRIRIRPPRLPRPRPRPVIGPRP — lower, -0.727
- RRIRIRPPRLPRPRPRPRIWPRP — within 0.2 log units, 0.063
- RRIRERPPRLPRPRPRPVQCPRP — within 0.2 log units, 0.00166
- RRIRFRPPRLPRPRPRPHWVPRP — lower, -0.523
- RRIRIRPPRLPRPRPRPRTNPRP — within 0.2 log units, -0.159
- RRIRWRPPRLPRPRPRPGQNPRP — higher, 0.134
- RRIRNRPPRLPRPRPRPNNFPRP — lower, -0.447
- RRIRNRPPRLPRPRPRPGVLPRP — higher, 0.222
- RRIRGRPPRLPRPRPRPCEGPRP — higher, 0.364
- RRIRMRPPRLPRPRPRPIRKPRP — higher, 0.553
- RRIRFRPPRLPRPRPRPQCCPRP — within 0.2 log units, -0.067
- RRIRHRPPRLPRPRPRPPHYPRP — within 0.2 log units, 0.0175
- RRIRIRPPRLPRPRPRPMYLPRP — within 0.2 log units, -0.249
- RRIRKRPPRLPRPRPRPSQMPRP — higher, 0.247
- RRIRERPPRLPRPRPRPWIEPRP — within 0.2 log units, -0.206
- RRIRTRPPRLPRPRPRPWDEPRP — within 0.2 log units, -0.167
- RRIRSRPPRLPRPRPRPRGIPRP — within 0.2 log units, -0.33
- RRIRARPPRLPRPRPRPQIDPRP — higher, 0.427
- RRIRGRPPRLPRPRPRPKDSPRP — higher, 0.244
- RRIRYRPPRLPRPRPRPKPQPRP — within 0.2 log units, -0.115
- RRIRTRPPRLPRPRPRPSGRPRP — within 0.2 log units, 0.0348
- RRIRSRPPRLPRPRPRPQEFPRP — within 0.2 log units, -0.00884
- RRIRVRPPRLPRPRPRPLFQPRP — within 0.2 log units, -0.0438
- RRIRFRPPRLPRPRPRPCLHPRP — lower, -0.542
- RRIRERPPRLPRPRPRPIIAPRP — within 0.2 log units, -0.106
- RRIRNRPPRLPRPRPRPFFQPRP — lower, -0.427
- RRIRVRPPRLPRPRPRPYSKPRP — higher, 0.12
- RRIRFRPPRLPRPRPRPATTPRP — within 0.2 log units, -0.0275
- RRIRKRPPRLPRPRPRPGYEPRP — within 0.2 log units, -0.0888
- RRIRERPPRLPRPRPRPQYRPRP — lower, -0.612
- RRIRDRPPRLPRPRPRPSAVPRP — higher, 0.291
- RRIRWRPPRLPRPRPRPSIFPRP — lower, -0.396
- RRIRRRPPRLPRPRPRPMIDPRP — within 0.2 log units, -0.1
- RRIRVRPPRLPRPRPRPIEMPRP — within 0.2 log units, -0.267
- RRIRWRPPRLPRPRPRPLFIPRP — lower, -0.353
- RRIRIRPPRLPRPRPRPGCTPRP — within 0.2 log units, -0.268
- RRIRPRPPRLPRPRPRPAHSPRP — within 0.2 log units, -0.00917
- RRIRPRPPRLPRPRPRPWVNPRP — within 0.2 log units, -0.11
- RRIRQRPPRLPRPRPRPAIPPRP — within 0.2 log units, 0.0602
- RRIRPRPPRLPRPRPRPHTYPRP — lower, -0.942
- RRIRVRPPRLPRPRPRPFINPRP — within 0.2 log units, -0.192
- RRIRKRPPRLPRPRPRPKQMPRP — higher, 0.471
- RRIRQRPPRLPRPRPRPQCWPRP — within 0.2 log units, -0.0996
- RRIRFRPPRLPRPRPRPEMFPRP — higher, 0.099
- RRIRIRPPRLPRPRPRPKGKPRP — within 0.2 log units, -0.162
- RRIRSRPPRLPRPRPRPNCSPRP — within 0.2 log units, -0.0305
- RRIRWRPPRLPRPRPRPVAYPRP — within 0.2 log units, -0.0891
- RRIRHRPPRLPRPRPRPRQSPRP — higher, 0.144
- RRIRGRPPRLPRPRPRPRSFPRP — within 0.2 log units, -0.0397
- RRIRKRPPRLPRPRPRPDDSPRP — within 0.2 log units, -0.0813
- RRIRFRPPRLPRPRPRPARAPRP — higher, 1.31
- RRIRARPPRLPRPRPRPDIYPRP — higher, 0.115
- RRIRDRPPRLPRPRPRPNSTPRP — within 0.2 log units, -0.295
- RRIRVRPPRLPRPRPRPFRCPRP — within 0.2 log units, -0.123
- RRIRQRPPRLPRPRPRPDCGPRP — higher, 2.88
- RRIRERPPRLPRPRPRPYRMPRP — within 0.2 log units, -0.113
- RRIRHRPPRLPRPRPRPCQHPRP — within 0.2 log units, -0.214
- RRIRGRPPRLPRPRPRPMHQPRP — higher, 0.696
